The text below walks through data of patent publication US20090311265A1.

The target of test [1] is recombinant HA, subtype H7 (A/Netherlands/219/03 (H7N7)) (influenza A virus A/Netherlands/219/03 (H7N7)). Briefly: ELISA, coated HA, IgG 5 µg/ml.
Test [2] deals with full-length HA from isolate A/Vietnam/1194/2004 (H5N1TV) on PER.C6 cells (influenza A virus A/Vietnam/1194/2004 (H5N1)) (UniProt Q80A26). Kind of test: flow cytometry, transfected PER.C6 cells. A general note: A flow cytometer gives signals particle by particle.
For test [3] the target is unchanged. Briefly: flow cytometry, transfected PER.C6 cells, separate experiment.
The target of test [4] is recombinant HA, subtype H5 (A/Vietnam/1203/2004 (H5N1)) (influenza A virus A/Vietnam/1203/2004 (H5N1)) (UniProt Q80A26). Briefly: ELISA, coated HA, IgG 5 µg/ml.
The target of test [5] is recombinant HA, subtype H9 (A/Hong Kong/1073/99 (H9N2)) (influenza A virus A/Hong Kong/1073/99 (H9N2)). Briefly: ELISA, coated HA, IgG 5 µg/ml. For orientation: ELISA stands for enzyme-linked immunosorbent assay.
The target in test [6] is recombinant HA, subtype H1 (A/New Caledonia/20/99 (H1N1)) (influenza A virus A/New Caledonia/20/99 (H1N1)) (UniProt Q289M7). Kind of test: ELISA, coated HA, IgG 5 µg/ml.
The target in test [7] is recombinant HA, subtype H3 (A/Wyoming/3/2003(H3N2)) (influenza A virus A/Wyoming/3/2003 (H3N2)). Kind of test: ELISA, coated HA, IgG 5 µg/ml.

As to CR6261 (antibody), the OD 492 nm in test [1] came to 0.31 OD 492 nm.
Turning to CR3014 (antibody), the flow cytometry signal at 0.1 µg/ml came to 6.21 in test [2] and 10.5 in test [3]. Also, the flow cytometry signal at 1 µg/ml in test [2] amounted to 10; in test [3] it was 7.95. Moreover, the flow cytometry signal at 10 µg/ml in test [2] amounted to 13.1; in test [3] it was 9.15. In addition, the OD 492 nm in test [4] is 0.09 OD 492 nm; in test [5] it was 0.16 OD 492 nm; in test [1] it was 0.17 OD 492 nm; in test [6], 0.08 OD 492 nm; in test [7], 0.07 OD 492 nm.
